Consider five substances from article PMC10144703, “Molecular Mechanism of Sirtuin 1 Inhibition by Human Immunodeficiency Virus 1 Tat Protein” (Life, 2023).

As usually defined, the IC50 is the midpoint of a concentration-inhibition curve.

One experiment has as its target T1, mini-Sirt1 (Homo sapiens, UniProt Q96EB6).
T1 construct: aa 183-505-(GGGS)2-641-665; made in house; host or cells: E. coli CodonPlus(DE3)
T1 sequence (Q96EB6 with tags, fused parts or gaps limits assumed): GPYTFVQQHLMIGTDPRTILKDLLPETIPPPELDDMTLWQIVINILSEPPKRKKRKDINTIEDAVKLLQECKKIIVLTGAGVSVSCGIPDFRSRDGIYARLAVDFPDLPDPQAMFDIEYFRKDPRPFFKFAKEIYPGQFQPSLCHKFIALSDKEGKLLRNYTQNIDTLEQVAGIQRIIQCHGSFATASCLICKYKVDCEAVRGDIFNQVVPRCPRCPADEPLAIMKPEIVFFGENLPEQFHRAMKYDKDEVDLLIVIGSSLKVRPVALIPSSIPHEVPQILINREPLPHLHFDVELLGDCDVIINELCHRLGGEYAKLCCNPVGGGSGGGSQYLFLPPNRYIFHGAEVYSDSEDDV
Nature of the experiment: Deacetylation of ac-Tat-46–54 as substrate by mini-Sirt1. The format is biochemical. The protocol:
(§1) For sirtuin deacetylation activity measurements, we used two well-characterized assays, a coupled enzymatic assay, and the so-called FdL assay, respectively.
Continuous coupled enzymatic sirtuin activity assays were conducted as described. […] For assays with Tat peptides, 5% (v/v) DMSO was added to all reactions to enhance peptide solubility. Reactions were monitored for 1 h at room temperature by absorption spectroscopy at 340 nm in a UV/vis plate reader (BioTek). The slope for the linear range (typically 5–25 min) was evaluated after background correction with measurements without NAD^+. Additional control reactions were run by either omitting enzyme or omitting peptide substrate to ensure that the signal measured reflects the NAD+-dependent deacetylation activity of the sirtuin.

The next experiment deals with human Sirt3-(118-399). Nature of the experiment: Crystal structure of Sirt3/Tat peptide complexes. The format is binding. The settings on record: Sirt3/Tat-37–59 at 1.95 Å; Sirt3/ac-Tat-46–54 at 1.65 Å. The protocol: For crystallization of the Sirt3 and Tat peptide complexes, 10 mg/mL human Sirt3-(118-399) in 20 mM Tris/HCl, pH 8.0, 150 mM NaCl, 5% (v/v) glycerol, 1 mM TCEP were incubated with 2 mM ac-Tat-46-54 or Tat-37-59 (the latter in 10% (v/v) DMSO) for 60 min at 20 °C. Both complexes were crystallized using the sitting-drop vapor-diffusion method at 20 °C with 100 mM MES, pH 6.0, 30% (w/v) PEG 200, 5% (w/v) PEG 3000 as reservoir solution for Sirt3/ac-Tat-46-54 and 100 mM CHES, pH 9.0, 20% (w/v) PEG 8000 for Sirt3/Tat-37-59. Crystals were cryoprotected with the respective reservoir solution supplemented with 25% (v/v) glycerol and flash-frozen in liquid nitrogen.
Diffraction data were collected at BESSY II, beamline MX14.1 operated by Helmholtz Zentrum Berlin (Berlin, Germany) at 0.9184 Å wavelength. Indexing, scaling, and merging of the Sirt3/ac-Tat-46-54 complex data were performed with XDSAPP [37]. The Sirt3/Tat-37–59 complex data were indexed and integrated with DIALS [38] and further processed with CCP4 programs Rebatch, Pointless, Aimless, and cTruncate, with 5% of the reflections assigned to Rfree with Uniqueify. The complex structures were phased by molecular replacement with PHASER [40] and using a Sirt3/ac-ACS/carba-NAD (PDB ID 4FVT) and a Sirt3/ADPr complex (PDB ID 4BVB), respectively, as a search model. […]

The target of experiment [1] is T2, human full-length Sirt1 (fl-Sirt1) (Homo sapiens, UniProt Q96EB6).
T2 construct: human full-length Sirt1 (fl-Sirt1) in pET-15b; made in house; host or cells: E. coli CodonPlus(DE3)
T2 sequence (Q96EB6 1-747): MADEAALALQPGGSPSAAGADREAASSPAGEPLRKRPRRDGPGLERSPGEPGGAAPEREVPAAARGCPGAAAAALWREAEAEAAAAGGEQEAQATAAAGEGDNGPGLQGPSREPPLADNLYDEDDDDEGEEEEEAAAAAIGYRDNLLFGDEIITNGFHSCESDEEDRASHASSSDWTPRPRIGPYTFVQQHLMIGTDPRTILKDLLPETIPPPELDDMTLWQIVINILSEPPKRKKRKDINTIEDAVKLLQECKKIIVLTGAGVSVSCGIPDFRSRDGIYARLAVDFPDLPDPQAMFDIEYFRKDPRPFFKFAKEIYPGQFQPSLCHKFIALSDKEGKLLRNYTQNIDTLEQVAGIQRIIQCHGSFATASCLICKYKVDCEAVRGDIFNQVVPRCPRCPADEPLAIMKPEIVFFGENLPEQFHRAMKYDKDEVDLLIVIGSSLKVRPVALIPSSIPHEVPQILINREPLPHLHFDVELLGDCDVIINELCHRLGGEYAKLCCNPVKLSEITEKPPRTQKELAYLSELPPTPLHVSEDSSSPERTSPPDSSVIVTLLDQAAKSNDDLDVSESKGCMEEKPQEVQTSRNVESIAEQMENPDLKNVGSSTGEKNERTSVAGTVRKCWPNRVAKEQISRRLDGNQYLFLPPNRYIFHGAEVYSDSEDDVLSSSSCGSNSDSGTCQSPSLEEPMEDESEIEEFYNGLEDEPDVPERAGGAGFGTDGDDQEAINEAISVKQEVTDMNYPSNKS
Nature of the experiment: Continuous coupled enzymatic sirtuin activity assay, fl-Sirt1. The settings on record: coupled-enzyme assay, n = 2. The class given is biochemical. An excerpt: A human mini-Sirt1 construct (aa 183-505-(GGGS)2-641-665), as described in [27], was generated in a modified pET-19b with a TEV cleavage site. This construct and human full-length Sirt1 (fl-Sirt1) in pET-15b, Sirt1-(183-664) and Sirt1-(214-664) in pET-15b, mini-Sirt1-∆SBD (aa 214-505-(GGGS)2-641-665) and mini-Sirt1-∆ESA (aa 183–505) in a modified pET-19b with TEV cleavage site, Sirt2-(43-356) in a modified pET-19b with a His6-Sumo tag, Sirt3-(93-399) in a modified pET-32a with Trx-His6 tag and TEV cleavage site, hSirt3-(118-399) in pVFT3S (Sungkyunkwan University, Seoul, Republic of Korea) with His6-Trx tag and TEV cleavage site, Sirt5-(34-302) in pET-151/D-TOPO, and Sirt6-(1-355) in pQE80L.1 were purified as described. […]
Continuous coupled enzymatic sirtuin activity assays were conducted as described. […] Reactions were monitored for 1 h at room temperature by absorption spectroscopy at 340 nm in a UV/vis plate reader (BioTek). The slope for the linear range (typically 5–25 min) was evaluated after background correction with measurements without NAD^+. Additional control reactions were run by either omitting enzyme or omitting peptide substrate to ensure that the signal measured reflects the NAD+-dependent deacetylation activity of the sirtuin.

The target of experiment [2] is T3, human mini-Sirt1 (aa 183-505-(GGGS)2-641-665) (Homo sapiens, UniProt Q96EB6).
T3 construct: aa 183-505-(GGGS)2-641-665; made in house; host or cells: E. coli CodonPlus(DE3)
T3 sequence (Q96EB6 with tags, fused parts or gaps limits assumed): T1 sequence (Q96EB6 with tags, fused parts or gaps limits assumed)
Nature of the experiment: FdL assay, mini-Sirt1. The format is biochemical. The settings on record: FdL-1 at substrate Km, 15% (v/v) DMSO, n = 3.
Excerpt: (§2) A human mini-Sirt1 construct (aa 183-505-(GGGS)2-641-665), as described in [27], was generated in a modified pET-19b with a TEV cleavage site. This construct and human full-length Sirt1 (fl-Sirt1) in pET-15b, Sirt1-(183-664) and Sirt1-(214-664) in pET-15b, mini-Sirt1-∆SBD (aa 214-505-(GGGS)2-641-665) and mini-Sirt1-∆ESA (aa 183–505) in a modified pET-19b with TEV cleavage site, Sirt2-(43-356) in a modified pET-19b with a His6-Sumo tag, Sirt3-(93-399) in a modified pET-32a with Trx-His6 tag and TEV cleavage site, hSirt3-(118-399) in pVFT3S (Sungkyunkwan University, Seoul, Republic of Korea) with His6-Trx tag and TEV cleavage site, Sirt5-(34-302) in pET-151/D-TOPO, and Sirt6-(1-355) in pQE80L.1 were purified as described. Shortly, proteins were expressed at 20 °C (mini-Sirt1 constructs at 16 °C) in E. coli CodonPlus(DE3), cell lysates were cleared by centrifugation, and proteins were purified via affinity chromatography using a nickel NTA column. After digestion with thrombin or TEV protease, proteins were re-run over the nickel NTA column, pooled, and concentrated. The samples were, then, subjected either directly to size exclusion chromatography in 50 mM Tris/HCl, pH 8.0, 150 mM NaCl, 1 mM TCEP, or to an ion exchange chromatography followed by size exclusion chromatography. Purified proteins (yield 1—4 mg/L expression culture) were concentrated to 12–18 mg/mL and shock frozen for storage at −80 °C.
as §1
Km values for FdL-1 were determined in the presence of 3 mM NAD^+ and Km values for NAD^+ in presence of 0.5 mM FdL-1 peptide. […] Reactions were incubated for 20 min, followed by a 1:1 addition of developer (2 mM NAM and 10 mg/mL trypsin in assay buffer). After incubation for 45 min at room temperature, fluorescence was measured with a FluoDia T70 (Photon Technology International Inc., Birmingham, NJ, USA) with an excitation wavelength of 365 nm and emission wavelength of 465 nm. […]

The subject of another experiment is Sirt1. The settings on record: FdL assay, wildtype Tat; ref [9]; read-out: IC50, Sirt1 (previously reported); cited from earlier work.
Experiment [3] deals with T2, human full-length Sirt1 (fl-Sirt1). Nature of the experiment: FdL deacetylation assay, fl-Sirt1. The class given is biochemical. The settings on record: FdL assay, 100 µM FdL-1, 500 µM NAD^+, pH 7.8, 37 °C; n = 2; read-out: IC50, fl-Sirt1, truncated Tat-Cys^− constructs.
Excerpt: as §2, with “Purified proteins (yield 1—4 mg/L expression culture) were concentrated to 12–18 mg/mL and shock frozen for storage at −80 °C.” left out

Where no end group is shown, it is not given here.

As for “ac-Tat-46–54: Lys50-acetylated Tat-46–54 peptide (SYGRK(Ac)KRRQ)”, in the experiment with mini-Sirt1 (Michaelis–Menten kinetics, mini-Sirt1, compared with ac-p53-Lys382, n = 3), the “Sirt1-dependent deacetylation (as substrate)” value is given as “efficient Sirt1-dependent deacetylation, even slightly more efficient than for its standard substrate peptide ac-p53-Lys382”. In addition, the “inhibitory effects at later time points of the deacetylation assay” value in the experiment with mini-Sirt1 (time-course for deacetylation by mini-Sirt1, n = 3) is on record as “did not observe any inhibitory effects at later time points”. In the experiment with human Sirt3-(118-399), the “binding site/mode in Sirt3 crystal structure” value is recorded as “inserted in the substrate binding groove in the typical, β-sheet-like fashion”. Besides, in experiment [1] (100 µM ac-p53 as basal substrate), the “effect on fl-Sirt1 activity upon addition to assay containing p53-peptide” value is “expected increase of activity”. Further, in experiment [1] (fl-Sirt1, 100 µM ac-p53 as basal substrate), the “onset of inhibition upon addition to assay containing p53-peptide” value is given as “no indications of instant or delayed onset of inhibition”.
For the substance SYGRKKRRQ [Tat-46–54], the IC50 in experiment [2] (37 °C, pH 7.8, ± s.d., read-out: IC50 (FdL assay), mini-Sirt1, non-acetylated Tat-46–54) turned out to be 131 ± 88.1 µM.
With “wildtype Tat: HIV1 transactivator of transcription protein, wildtype, as previously reported”, the IC50 with Sirt1 was 3.5 µM.
On to “Tat-49–60: synthetic non-acetylated Tat fragment, residues 49–60 (RKKRRQRRRPSQ)”, for which the “inhibition of mini-Sirt1 by synthetic Tat peptides (Figure 2F)” value in experiment [2] (dose-dependent) is reported as “weaker inhibition”. In addition, the “inhibition of mini-Sirt1, titration (Figure 2G)” value in experiment [2] (titration) was “neither Tat-31–49 nor Tat-49–60 alone was sufficient for significant inhibition”.
“residues 21–63 of Tat-Cys^−: construct also lacking the N-terminal region from aa 1–20 (ASNRAHAKKSAYHSQVAFITKGLGISYGRKKRRQRRRPSQGGQ)”: the IC50 in experiment [3] was ~30 µM.
